From article PMC3924328, “Structure of the S100A4/myosin-IIA complex” (BMC Structural Biology, 2013)
The star is where a group is joined. FITC = O=C1OC2(c3ccc(O)cc3Oc3cc(O)ccc32)c2ccc(NC(=S)*)cc21; Ahx = NCCCCCC(=O)O

B3: S100A4 (wild-type, full-length, human) (natural protein)
chain: not shown
notes: Dimer; also called wild-type S100A4; Ca^2+-S100A4; source: E. coli BL21(DE3)*, purified (ammonium sulfate, Phenyl-Sepharose, Q XL anion exchange); 15N-labelled from M9 medium for NMR

What was measured:
[1] = target: T1, S100A4Δ8C (S100A4 with the C-terminal eight amino acids deleted) (human, UniProt P26447 1-93); assay: fluorescence polarisation; direct anisotropy titration; 50 nM FITC-MIIA^1904-1927, 0-30 μM S100A4Δ8C dimer; 22°C; 20 mM Tris pH 7.5, 150 mM KCl, 1 mM DTT, 0.5 mM CaCl2, 0.5 mg/ml BSA; single site saturation fit; details: both partners purified
T1 construct: S100A4, human, codon-optimized, untagged, in pET11b; deletion of the C-terminal eight amino acids (residues 94-101 absent); Dimer; also called Ca^2+-S100A4Δ8C; apo-S100A4Δ8C; source: E. coli BL21(DE3)*, purified (ammonium sulfate, Phenyl-Sepharose, Q XL anion exchange; Superdex 75 for crystallization)

[2] = target: B3; assay: fluorescence polarisation; competition anisotropy; 50 nM FITC-MIIA^1904-1927, 0.3 μM S100A4 dimer, 0-10 μM MIIA^1851-1960 dimer; 22°C; 20 mM Tris pH 7.5, 150 mM KCl, 1 mM DTT, 0.5 mM CaCl2, 0.5 mg/ml BSA; details: both partners purified
[3] = target: the molecule itself; assay: AUC; sedimentation equilibrium, 22°C, interference optics; 20 mM Tris pH 7.5, 150 mM KCl, 0.5 mM CaCl2, 1 mM TCEP; MIIA^1851-1960 alone and mixed with S100A4 at 0.5:1 and 1:1 (dimer:dimer); 12,000, 20,000 and 28,000 rpm
[4] = target: B3; assay: as above; details: both partners purified
[5] = target: B3; assay: AUC; sedimentation velocity, 22°C, 53,000 rpm; 20 mM Tris pH 7.5, 150 mM KCl, 0.5 mM CaCl2, 1 mM TCEP; each protein alone and MIIA^1851-1960 dimer:S100A4 dimer at 0.5:1, 1:1, 1.5:1; details: both partners purified

T1 sequence (P26447 1-93, stated change not applied): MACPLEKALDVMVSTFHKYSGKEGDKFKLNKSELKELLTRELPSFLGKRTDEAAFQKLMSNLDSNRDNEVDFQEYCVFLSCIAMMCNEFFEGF

B1: FITC-MIIA^1904-1927 peptide (peptide)
peptide: {FITC-Ahx}-TETADAMNREVSSLKNKLRRGDLP-NH2
SMILES: CSCC[C@H](NC(=O)[C@H](C)NC(=O)[C@H](CC(=O)O)NC(=O)[C@H](C)NC(=O)[C@@H](NC(=O)[C@H](CCC(=O)O)NC(=O)[C@@H](NC(=O)CCCCCNC(=S)Nc1ccc2c(c1)C(=O)OC21c2ccc(O)cc2Oc2cc(O)ccc21)[C@@H](C)O)[C@@H](C)O)C(=O)N[C@@H](CC(N)=O)C(=O)N[C@@H](CCCNC(=N)N)C(=O)N[C@@H](CCC(=O)O)C(=O)N[C@H](C(=O)N[C@@H](CO)C(=O)N[C@@H](CO)C(=O)N[C@@H](CC(C)C)C(=O)N[C@@H](CCCCN)C(=O)N[C@@H](CC(N)=O)C(=O)N[C@@H](CCCCN)C(=O)N[C@@H](CC(C)C)C(=O)N[C@@H](CCCNC(=N)N)C(=O)N[C@@H](CCCNC(=N)N)C(=O)NCC(=O)N[C@@H](CC(=O)O)C(=O)N[C@@H](CC(C)C)C(=O)N1CCC[C@H]1C(N)=O)C(C)C
notes: source: synthetic peptide (Bio-Synthesis Inc.)
B1 showed a Kd [1] of 510 ± 50 nM.

B2: MIIA^1851-1960 (C-terminal fragment of the human myosin-IIA heavy chain) (domain or fragment, UniProt P35579 1851-1960, looked up)
chain: VDDERRNAEQYKDQADKASTRLKQLKRQLEEAEEEAQRANASRRKLQRELEDATETADAMNREVSSLKNKLRRGDLPFVVPRRMARKGAGDGSDEEVDGKADGAEAKPAE
notes: about 75 residues of the coiled-coil and the entire C-terminal tailpiece; A dimer when alone (sedimentation equilibrium); Printed monomer mass 12,397.5 Da; source: E. coli BL21(DE3)*, purified (High Q Sepharose, hydroxyapatite, Sephacryl S200)
B2 was tested, and the IC50 [2] was 21.2 nM, the “stoichiometry N” value [3] was 2 and the “stoichiometry N” value [4] was 1 MIIA^1851-1960 polypeptide chain per S100A4 dimer. The “stoichiometry N” value [5] was 1 MIIA^1851-1960 polypeptide per S100A4 dimer.

B3: binds [3].
